Assay results taken from patent publication US20050064514A1.
Values joined by “and” are separate entries in the source; they are usually repeats but may differ in a detail not shown here. Equal values may be shown once.

Tests used:
[1] = molecular target: soluble monomeric FcγRIIIA-linker-AVITAG (158V allele) (human) (UniProt P08637); experiment: FACS, 0.1 µM biotinylated FcγRIIIA then 0.1 µM unlabeled FcγRIIIA
[2] = molecular target: soluble monomeric FcγRIIIA-linker-AVITAG (158V allele) (human) (UniProt P08637); experiment: BIAcore
[3] = molecular target: soluble monomeric FcγRIIIA-linker-AVITAG (158V allele) (human) (UniProt P08637); experiment: BIAcore separate fit
[4] = molecular target: soluble monomeric FcγRIIIA-linker-AVITAG (158V allele) (human) (UniProt P08637); experiment: ELISA
[5] = molecular target: soluble FcγRIIB (form used in the ELISA not stated) (human) (UniProt P31994); experiment: ELISA
[6] = molecular target: FcγRIIB-Fc fusion protein (soluble dimeric FcγRIIB) (human) (UniProt P31994); experiment: BIAcore
[7] = molecular target: FcγRIIB-Fc fusion protein (soluble dimeric FcγRIIB) (human) (UniProt P31994); experiment: BIAcore separate fit
[8] = molecular target: wild type CH1-CH3 Fc fusion protein displayed on yeast (pYD-CH1) (Saccharomyces cerevisiae; human) (UniProt P32781); experiment: FACS titration 1.4 to 0.0006 µM, mean fluorescence, nonlinear regression

Sequence of FcγRIIB-Fc fusion protein (soluble dimeric FcγRIIB) (human) (P31994 43-217): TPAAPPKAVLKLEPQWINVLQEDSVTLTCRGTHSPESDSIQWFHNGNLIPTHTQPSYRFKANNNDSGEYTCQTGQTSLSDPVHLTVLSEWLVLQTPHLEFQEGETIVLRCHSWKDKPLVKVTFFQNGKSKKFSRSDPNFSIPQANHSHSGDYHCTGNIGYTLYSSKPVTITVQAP
Sequence of soluble monomeric FcγRIIIA-linker-AVITAG (158V allele) (human) (P08637 17-203 F176V limits assumed, form in doubt): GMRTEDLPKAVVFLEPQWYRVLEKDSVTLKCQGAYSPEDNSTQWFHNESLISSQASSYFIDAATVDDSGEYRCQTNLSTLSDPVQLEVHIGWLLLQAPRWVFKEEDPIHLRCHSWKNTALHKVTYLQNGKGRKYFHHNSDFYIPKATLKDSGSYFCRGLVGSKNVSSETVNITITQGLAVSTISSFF
Sequence of soluble FcγRIIB (form used in the ELISA not stated) (human) (P31994 43-180 limits assumed, form in doubt): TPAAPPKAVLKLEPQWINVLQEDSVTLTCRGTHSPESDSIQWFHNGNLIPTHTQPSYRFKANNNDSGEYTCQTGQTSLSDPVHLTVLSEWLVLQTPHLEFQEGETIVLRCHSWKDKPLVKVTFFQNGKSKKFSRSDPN
Sequence of P396L Fc variant displayed on the yeast surface (P32781 19-87, stated change not applied): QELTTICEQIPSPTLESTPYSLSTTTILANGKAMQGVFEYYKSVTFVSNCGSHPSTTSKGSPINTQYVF

Row | Kd [2] | Kd [3] [nM] | also measured | Substance
1 | – | – | loss of cell staining after 1 minute with unlabeled receptor [1]: 50% | P396L Fc variant displayed on the yeast surface (from UniProt P32781 19-87)
2 | 195 nM | – | – | ch4-4-20 E293V, Q295E, A327T (from UniProt P01857 1-330) (antibody)
3 | 72 nM | – | – | ch4-4-20 G316D, A378V, D399E (from UniProt P01857 1-330) (antibody)
4 | 178 nM | – | – | ch4-4-20 H268N, P396L (from UniProt P01857 1-330) (antibody)
5 | 154 nM and 180 nM | – | – | ch4-4-20 K248M (from UniProt P01857 1-330) (antibody)
6 | 75.4 nM | 75.4 | – | ch4-4-20 K288M, K334E (from UniProt P01857 1-330) (antibody)
7 | 128 nM | 128 | – | ch4-4-20 K288N, A330S, P396L (from UniProt P01857 1-330) (antibody)
8 | 70.2 nM | 70.2 | – | ch4-4-20 K334E, R292L (from UniProt P01857 1-330) (antibody)
9 | 55.2 nM | – | – | ch4-4-20 K334E, T359N, T366S (from UniProt P01857 1-330) (antibody)
10 | – | 48.6 | – | ch4-4-20 Mut25(0225) (MgFc 25: E333A, K334A, S298A) (from UniProt P01857 1-330) (antibody)
11 | – | 264 | ELISA, OD [4]: 0.6 OD | ch4-4-20 Mut 6 (S219V) (from UniProt P01857 1-330) (antibody)
12 | 62 nM | – | – | ch4-4-20 P247L, N421K (from UniProt P01857 1-330) (antibody)
13 | 160 nM | 214 | – | ch4-4-20 V379M (from UniProt P01857 1-330) (antibody)
14 | 125 nM | – | – | ch4-4-20 Y319F, P352L, P396L (from UniProt P01857 1-330) (antibody)
15 | – | – | ELISA binding relative to wt [5]: 1 x; ELISA, OD [5]: 0.4 OD; ELISA binding relative to wt [4]: 1 x; ELISA, OD [4]: 0.5 OD; Kd [6]: 94 nM; koff [6]: 0.094 s⁻¹; Kd [7]: 61.4 nM; koff [7]: 0.085 s⁻¹ | chimeric 4-4-20 anti-fluorescein monoclonal antibody, wild type Fc
16 | – | – | Kd [8]: 6 nM | soluble FcγRIIIA tetrameric complex (from UniProt P08637 17-203) (receptor)
